Sequences and labels used below:
B1: TRIM29 (parent)
chain: RKCPVHGKTMELFCQTDQTCICYL
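Also: lentivirally expressed fusions sorted by FACS into six bins by GFP to DsRed ratio, PSI derived from sequencing read proportions per bin multiplied by bin number.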

The variants in the data set derive from B1. Put plainly: protein stability index of a GFP-peptide fusion (GPS, HEK-293T) (PSI 1-6); higher = more stable. Conditions: c terminus: a fixed tail appended.
For the variant RKCPVHTKTMELFCQTDQTCICYL [G7T], the protein stability index is 2.46.

Turning to RKCPVHFKTMELFCQTDQTCICYL [G7F], the protein stability index came to 2.55.

For RKCPVHAKTMELFCQTDQTCICYL [G7A], the protein stability index came out at 2.25.

As to RKCPVHKKTMELFCQTDQTCICYL [G7K], the protein stability index came to 1.63.

As for RKCPVHDKTMELFCQTDQTCICYL [G7D], the protein stability index amounted to 3.12.

With RKCPVHVKTMELFCQTDQTCICYL [G7V], the protein stability index amounted to 2.04.

RKCPVHSKTMELFCQTDQTCICYL [G7S]: the protein stability index is 2.57.

As to RKCPVHNKTMELFCQTDQTCICYL [G7N], the protein stability index is 3.49.

RKCPVHGKTMMLFCQTDQTCICYL [E11M]: the protein stability index is 1.7.

For RKCPVHGKTMLLFCQTDQTCICYL [E11L], the protein stability index worked out at 3.23.

Take RKCPVHGKTMDLFCQTDQTCICYL [E11D]: the protein stability index was determined as 2.49.

Regarding RKCPVHGKTMNLFCQTDQTCICYL [E11N], the protein stability index came out at 2.55.

On to RKCPVHGKTMKLFCQTDQTCICYL [E11K], for which the protein stability index came to 1.92.

Turning to RKCPVHGKTMPLFCQTDQTCICYL [E11P], the protein stability index worked out at 2.95.

As to RKCPVHGKTMALFCQTDQTCICYL [E11A], the protein stability index was 1.83.

Take RKCPVHGKTMSLFCQTDQTCICYL [E11S]: the protein stability index amounted to 2.85.

Consider RKCPVHGKTMRLFCQTDQTCICYL [E11R], for which the protein stability index came out at 2.14.

As for RKCPVHGKTMVLFCQTDQTCICYL [E11V], the protein stability index came to 2.9.

On to RKCPVHGKTMWLFCQTDQTCICYL [E11W], for which the protein stability index worked out at 2.41.

As to RKCPVHGKTMILFCQTDQTCICYL [E11I], the protein stability index was found to be 2.77.

In the case of RKCPVHGKTMFLFCQTDQTCICYL [E11F], the protein stability index came to 1.76.

Regarding RKCPVHGKTMQLFCQTDQTCICYL [E11Q], the protein stability index was found to be 1.47.

On to RKCPVHGKTMHLFCQTDQTCICYL [E11H], for which the protein stability index came to 2.56.

For the variant RKCPVHGKTMGLFCQTDQTCICYL [E11G], the protein stability index was 2.31.

For the variant RKCPVHGKTMTLFCQTDQTCICYL [E11T], the protein stability index was determined as 2.66.

On to RKCPVHGKQMELFCQTDQTCICYL [T9Q], for which the protein stability index was 1.77.

In the case of RKCPVHGKPMELFCQTDQTCICYL [T9P], the protein stability index is 1.98.

On to RKCPVHGKVMELFCQTDQTCICYL [T9V], for which the protein stability index worked out at 2.41.

With RKCPVHGKGMELFCQTDQTCICYL [T9G], the protein stability index was 2.72.

As to RKCPVHGKHMELFCQTDQTCICYL [T9H], the protein stability index is 1.78.

Consider RKCPVHGKAMELFCQTDQTCICYL [T9A], for which the protein stability index worked out at 2.95.

For the variant RKCPVHGKMMELFCQTDQTCICYL [T9M], the protein stability index stood at 2.77.

Consider RKCPVHGKEMELFCQTDQTCICYL [T9E], for which the protein stability index was 2.06.

Consider RKCPVHGKRMELFCQTDQTCICYL [T9R], for which the protein stability index amounted to 1.21.

Consider RKCPVHGKSMELFCQTDQTCICYL [T9S], for which the protein stability index worked out at 3.03.

Take RKCPVHGKNMELFCQTDQTCICYL [T9N]: the protein stability index worked out at 2.79.

Take RKCPVHGKWMELFCQTDQTCICYL [T9W]: the protein stability index stood at 2.42.

Take RKCPVHGKLMELFCQTDQTCICYL [T9L]: the protein stability index was found to be 2.56.

As to RKCPVHGKYMELFCQTDQTCICYL [T9Y], the protein stability index stood at 2.25.

For the variant RKCPVHGKFMELFCQTDQTCICYL [T9F], the protein stability index amounted to 3.32.

Take RKCPVHGKDMELFCQTDQTCICYL [T9D]: the protein stability index came to 2.81.

For RKCPVHGKCMELFCQTDQTCICYL [T9C], the protein stability index worked out at 1.75.

For the variant RKCPVHGKIMELFCQTDQTCICYL [T9I], the protein stability index worked out at 1.49.

As to RKCPVHGKKMELFCQTDQTCICYL [T9K], the protein stability index came out at 2.46.

In the case of RKCPVHGKTFELFCQTDQTCICYL [M10F], the protein stability index turned out to be 2.58.

For the variant RKCPVHGKTEELFCQTDQTCICYL [M10E], the protein stability index was found to be 1.46.

As to RKCPVHGKTWELFCQTDQTCICYL [M10W], the protein stability index was found to be 1.46.

Turning to RKCPVHGKTRELFCQTDQTCICYL [M10R], the protein stability index was 2.84.

Consider RKCPVHGKTIELFCQTDQTCICYL [M10I], for which the protein stability index is 3.45.

Regarding RKCPVHGKTCELFCQTDQTCICYL [M10C], the protein stability index was found to be 1.94.

With RKCPVHGKTTELFCQTDQTCICYL [M10T], the protein stability index is 1.49.

Regarding RKCPVHGKTPELFCQTDQTCICYL [M10P], the protein stability index amounted to 2.35.

Turning to RKCPVHGKTHELFCQTDQTCICYL [M10H], the protein stability index was determined as 2.43.

Consider RKCPVHGKTGELFCQTDQTCICYL [M10G], for which the protein stability index is 1.65.

Regarding RKCPVHGKTYELFCQTDQTCICYL [M10Y], the protein stability index worked out at 1.83.

For the variant RKCPVHGKTQELFCQTDQTCICYL [M10Q], the protein stability index was determined as 1.87.

Regarding RKCPVHGKTNELFCQTDQTCICYL [M10N], the protein stability index is 2.14.

Consider RKCPVHGKTVELFCQTDQTCICYL [M10V], for which the protein stability index stood at 1.98.

For the variant RKCPVHGKTAELFCQTDQTCICYL [M10A], the protein stability index is 1.87.

In the case of RKCPVHGKTSELFCQTDQTCICYL [M10S], the protein stability index came to 2.43.

In the case of RKCPVHGKTLELFCQTDQTCICYL [M10L], the protein stability index was 1.99.

For RKCPVHGKTKELFCQTDQTCICYL [M10K], the protein stability index was 2.02.

With RKCPVHGKTDELFCQTDQTCICYL [M10D], the protein stability index stood at 2.44.

As to RKCPVIGKTMELFCQTDQTCICYL [H6I], the protein stability index came to 2.37.

Turning to RKCPVDGKTMELFCQTDQTCICYL [H6D], the protein stability index came to 3.05.

For RKCPVGGKTMELFCQTDQTCICYL [H6G], the protein stability index is 2.4.

For RKCPVNGKTMELFCQTDQTCICYL [H6N], the protein stability index turned out to be 3.27.

Take RKCPVCGKTMELFCQTDQTCICYL [H6C]: the protein stability index was found to be 1.62.

RKCPVLGKTMELFCQTDQTCICYL [H6L]: the protein stability index came to 2.85.

Regarding RKCPVFGKTMELFCQTDQTCICYL [H6F], the protein stability index was 2.31.

RKCPVPGKTMELFCQTDQTCICYL [H6P]: the protein stability index stood at 1.98.

As for RKCPVWGKTMELFCQTDQTCICYL [H6W], the protein stability index was 1.96.

Consider RKCPVKGKTMELFCQTDQTCICYL [H6K], for which the protein stability index was determined as 2.29.

On to RKCPVAGKTMELFCQTDQTCICYL [H6A], for which the protein stability index came to 2.38.

Take RKCPVVGKTMELFCQTDQTCICYL [H6V]: the protein stability index came to 2.44.

Regarding RKCPVRGKTMELFCQTDQTCICYL [H6R], the protein stability index is 4.01.

For RKPPVHGKTMELFCQTDQTCICYL [C3P], the protein stability index is 1.97.

RKHPVHGKTMELFCQTDQTCICYL [C3H]: the protein stability index was 2.27.

For the variant RKDPVHGKTMELFCQTDQTCICYL [C3D], the protein stability index is 2.13.

Take RKWPVHGKTMELFCQTDQTCICYL [C3W]: the protein stability index worked out at 2.72.

Take RKLPVHGKTMELFCQTDQTCICYL [C3L]: the protein stability index was determined as 2.3.

With RKAPVHGKTMELFCQTDQTCICYL [C3A], the protein stability index stood at 3.58.

RKTPVHGKTMELFCQTDQTCICYL [C3T]: the protein stability index came to 3.1.

With RKEPVHGKTMELFCQTDQTCICYL [C3E], the protein stability index is 2.52.

For the variant RKSPVHGKTMELFCQTDQTCICYL [C3S], the protein stability index worked out at 2.54.

For the variant RKVPVHGKTMELFCQTDQTCICYL [C3V], the protein stability index was 1.86.

As to RKIPVHGKTMELFCQTDQTCICYL [C3I], the protein stability index came to 3.19.

As for RKYPVHGKTMELFCQTDQTCICYL [C3Y], the protein stability index turned out to be 1.9.

On to RKFPVHGKTMELFCQTDQTCICYL [C3F], for which the protein stability index was determined as 2.35.

In the case of RKGPVHGKTMELFCQTDQTCICYL [C3G], the protein stability index came to 2.1.

Consider RKKPVHGKTMELFCQTDQTCICYL [C3K], for which the protein stability index stood at 1.89.

In the case of RKQPVHGKTMELFCQTDQTCICYL [C3Q], the protein stability index was determined as 2.64.

With RKNPVHGKTMELFCQTDQTCICYL [C3N], the protein stability index is 2.92.

Consider RKRPVHGKTMELFCQTDQTCICYL [C3R], for which the protein stability index turned out to be 2.12.
